Assay results taken from paper PMC2901993 (Biochemical and biophysical research communications, 2010).
Where a chain is given by its changes, count along the chain named.

B1: dPRM-2 (ssDNA)
DNA: TCTGAGCCCTGAGCTGCCAAGGAGCCACGAGATCTGAGT
B2: PRM-2 (ssRNA)
RNA: UCUGAGCCCUGAGCUGCCAAGGAGCCACGAGAUCUGAGU
B3: rGAG (ssRNA)
RNA: AGAGGAGGAGGAGGAGGAGGAGGAG
B4: PRM-2 Variant 3 (ssRNA)
RNA: B2 RNA with G11C, G13C, G29C, G31C
B5: PRM-2 Variant 2 (ssRNA)
RNA: B2 RNA with G29C, G31C
B6: PRM-2 Variant 1 (ssRNA)
RNA: B2 RNA with G11C, G13C
B7: PRM-2(1-30) (ssRNA)
RNA: UCUGAGCCCUGAGCUGCCAAGGAGCCACGA

Target: translin (in translin-trax complex);trax (translin-associated factor X) (Mus musculus;Mus musculus, UniProt Q62348;Q9QZE7 1-228;1-290, |)
Assay: fluorescence polarization

translin (in translin-trax complex);trax (translin-associated factor X), sequence (Q62348 whole entry, chain 1 of 2): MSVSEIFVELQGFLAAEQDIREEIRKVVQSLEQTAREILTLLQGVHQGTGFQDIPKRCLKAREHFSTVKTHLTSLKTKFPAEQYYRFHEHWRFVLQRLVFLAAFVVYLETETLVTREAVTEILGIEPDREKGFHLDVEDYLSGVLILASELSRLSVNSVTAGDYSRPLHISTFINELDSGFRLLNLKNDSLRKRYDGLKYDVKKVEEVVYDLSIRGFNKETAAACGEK
translin (in translin-trax complex);trax (translin-associated factor X), sequence (Q9QZE7 whole entry, chain 2 of 2): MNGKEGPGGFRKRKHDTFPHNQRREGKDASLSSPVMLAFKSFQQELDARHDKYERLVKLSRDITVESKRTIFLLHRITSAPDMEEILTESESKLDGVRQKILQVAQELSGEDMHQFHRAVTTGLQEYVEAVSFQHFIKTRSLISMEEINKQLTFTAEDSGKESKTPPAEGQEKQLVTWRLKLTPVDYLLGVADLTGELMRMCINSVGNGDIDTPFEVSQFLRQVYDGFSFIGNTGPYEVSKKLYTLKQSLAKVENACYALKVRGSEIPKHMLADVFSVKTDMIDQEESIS

Point of comparison: B1, Kd 4000 nM. Against it:
- B2 — 10-fold higher, 40000 nM

Target: translin (TB-RBP) (Mus musculus, UniProt Q62348 1-228)
Assay: fluorescence polarization

translin (TB-RBP), sequence (Q62348 whole entry): as the sequence (Q62348 whole entry, chain 1 of 2) above

Point of comparison: B4, Kd 300 nM. Against it:
- B1 — 33-fold higher, 10000 nM
- B3 — 1.7-fold higher, 500 nM
- B2 — 1.5-fold lower, 200 nM
- B5 — 1.5-fold lower, 200 nM
- B6 — 3.3-fold higher, 1000 nM
- B7 — 1.5-fold lower, 200 nM
